The source of these data is patent publication US20090324601A1 (published 2009).

To fix the notation:
B1: 2.998.2 (antibody, V domains shown)
VH: QLQLQESGPGLVKPSETLSLTCTVSGDSISSFIYYWGWIRQPPGKGLEWIGTIYYSGSTYYNPSLKSRVTISVDTSKNQFSLKLRSVTAADTAVYYCARHHWVFDYWGQGTQVTVSS
VL: DIVLTQFPDFQSVTPKEKVTITCRASQVIGSSLHWYQQKPDQSPKLLIKYASQSFSGVPSRFSGSGSGTDFTLTINSLEVEDAATYYCHQSTILPWTFGQGTKVEVK
notes: identified by its values; also called mAb 2.998.2
B2: 2.84.3 (antibody, V domains shown)
VH: B1 VH with D27G, S28F, F32S, I33S, S58T, P63S, K77Q, R85S, Q112L
VL: EVVLTQSPDFQSVTPKEKITITCRASQIIGTSLHWYQKKPDQSPKLLIKYASQSFSGVPSRFSGSGSGTEFTLTINSLEAEDTATYYCHQSTNLPWTFGQGTKVEIK
B3: 2.449.1.3 (antibody, V domains shown)
VH: QVQLVESGGGLVKPGGSLRLSCAASGFTFSDYYMNWIRQAPGKGLEWVSYISSSGSIIYYADSVKGRFTISRDNAKNSLYLQMNSLRAEDTAVYYCAREGRIAARGMDVWGQGTTVTVSS
VL: DIQMTQSPSSLSASVGDRVSITCRPSQSFSRYINWYQQKPGKAPKLLIHAASSLVGGVPSRFSGSGSGTDFTLTISSLQPEDFATYYCQQTYSNPPITFGQGTRLEMK
notes: identified by its values; also called mAb 2.449.1.3
B4: 2.1623.2 (antibody, V domains shown)
VH: B3 VH with Y50F, I57T, E99D, R101H
VL: B3 VL with S20T, P25A, H49Y, V55Q, T74A, N94T, M107I
B5: 2.1853.3 (antibody, V domains shown)
VH: B3 VH with E99D, A103V
VL: DIQMTQSPSSLCASVGDRVTITCRASRSITRYLNWYQQKPGKAPKLLIYGASSLQSGVPSRFSGSGSGTDFTLTISSLQPEDFATYYCQQSYSTPPITFGQGTRLEIK
B6: 2.175.3 variant A (antibody, V domains shown)
VH: QVQLVESGGGLVKPGGSLRLSCAASGFTFSDYYMHWIRQAPGKGLEWVSYISRSGSLIYYVDSVKGRFTISRDNAKNSLYLQMNSLRAEDTAVYYCARGGPYSGSPFDYWGQGTLVTVSS
VL: B5 VL with C12S, A25P, R27Q, S28R, T30S, G50A, Q55P, I97W, R104K, L105V
B7: 2.449.1 variant A (antibody, V domains shown)
VH: B3 VH
VL: B3 VL with H49Y, M107I
notes: also called 2.449.1.3 Variant A; 2.449.1.3 variant A
B8: 2.175.3 (antibody, V domains shown)
VH: B6 VH with Q3H, Y80N
VL: DIQMTQSPSSLSASVGDRVTITCRPSQRISRYLNWYQQKPGKAPKFLIYAASSLPSGVPSRFSGSGSGTDFTLTISTLQPEDFATYYCQQSYSTPPWTFGQGTKVEIK
notes: Variable regions only
B9: 2.1623.2 (antibody, V domains shown)
VH: B3 VH with Y50F, I57T, E99D, R101H
VL: B3 VL with S20T, P25A, H49Y, V55Q, T74A, N94T, M107I
notes: Variable regions only
B10: 2.1853.3 (antibody, V domains shown)
VH: B3 VH with E99D, A103V
VL: B5 VL
notes: Variable regions only
B11: 2.998.2 (antibody, V domains shown)
VH: B1 VH
VL: B1 VL
B12: 2.84.3 (antibody, V domains shown)
VH: B1 VH with D27G, S28F, F32S, I33S, S58T, P63S, K77Q, R85S, Q112L
VL: B2 VL
B13: 2.175.3 (antibody, V domains shown)
VH: B6 VH with Q3H, Y80N
VL: B8 VL
B14: 2.449.1.3 (antibody, V domains shown)
VH: B3 VH
VL: B3 VL
notes: also called 2.449.1.3 (control)

In general, IC50 refers to the concentration needed to halve the response being measured. By Kd is commonly meant a measure of binding affinity in units of concentration. The term koff denotes the rate constant with which the complex falls apart. By kon is commonly meant a measure of how fast the partners come together.

Changes are numbered by the printed parent chain. Where “and” joins values, the source holds several entries; their conditions need not be identical. Identical values can stand only once.

T3 sequence (P26618 25-1089): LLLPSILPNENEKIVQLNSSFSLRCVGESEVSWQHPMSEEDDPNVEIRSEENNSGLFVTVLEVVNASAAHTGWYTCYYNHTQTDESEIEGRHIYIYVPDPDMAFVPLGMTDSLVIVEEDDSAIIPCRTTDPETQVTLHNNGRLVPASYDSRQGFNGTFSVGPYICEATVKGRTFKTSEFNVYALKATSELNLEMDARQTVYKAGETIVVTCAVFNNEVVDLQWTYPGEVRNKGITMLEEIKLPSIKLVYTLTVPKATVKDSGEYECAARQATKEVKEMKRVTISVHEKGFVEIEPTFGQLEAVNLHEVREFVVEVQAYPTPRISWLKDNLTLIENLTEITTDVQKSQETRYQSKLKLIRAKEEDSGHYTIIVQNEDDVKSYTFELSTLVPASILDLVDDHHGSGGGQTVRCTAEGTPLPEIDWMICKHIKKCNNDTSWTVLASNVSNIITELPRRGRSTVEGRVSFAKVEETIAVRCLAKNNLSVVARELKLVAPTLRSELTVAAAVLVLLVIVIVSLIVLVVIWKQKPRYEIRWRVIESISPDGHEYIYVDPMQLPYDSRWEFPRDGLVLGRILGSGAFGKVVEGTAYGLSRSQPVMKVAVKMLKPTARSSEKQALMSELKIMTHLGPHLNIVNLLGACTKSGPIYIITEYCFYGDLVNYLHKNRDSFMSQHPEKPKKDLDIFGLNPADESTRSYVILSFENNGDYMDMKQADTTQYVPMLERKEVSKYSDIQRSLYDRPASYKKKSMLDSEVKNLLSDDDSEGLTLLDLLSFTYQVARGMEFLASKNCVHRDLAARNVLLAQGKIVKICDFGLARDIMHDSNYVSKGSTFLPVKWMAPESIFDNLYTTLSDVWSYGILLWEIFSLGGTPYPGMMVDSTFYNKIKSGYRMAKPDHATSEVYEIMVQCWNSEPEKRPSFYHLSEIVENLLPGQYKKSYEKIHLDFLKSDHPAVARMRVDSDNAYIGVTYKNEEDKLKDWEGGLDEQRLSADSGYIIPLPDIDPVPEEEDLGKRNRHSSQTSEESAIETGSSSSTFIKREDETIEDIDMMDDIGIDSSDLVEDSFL
Chain of c-kit (P10721 26-520 limits assumed): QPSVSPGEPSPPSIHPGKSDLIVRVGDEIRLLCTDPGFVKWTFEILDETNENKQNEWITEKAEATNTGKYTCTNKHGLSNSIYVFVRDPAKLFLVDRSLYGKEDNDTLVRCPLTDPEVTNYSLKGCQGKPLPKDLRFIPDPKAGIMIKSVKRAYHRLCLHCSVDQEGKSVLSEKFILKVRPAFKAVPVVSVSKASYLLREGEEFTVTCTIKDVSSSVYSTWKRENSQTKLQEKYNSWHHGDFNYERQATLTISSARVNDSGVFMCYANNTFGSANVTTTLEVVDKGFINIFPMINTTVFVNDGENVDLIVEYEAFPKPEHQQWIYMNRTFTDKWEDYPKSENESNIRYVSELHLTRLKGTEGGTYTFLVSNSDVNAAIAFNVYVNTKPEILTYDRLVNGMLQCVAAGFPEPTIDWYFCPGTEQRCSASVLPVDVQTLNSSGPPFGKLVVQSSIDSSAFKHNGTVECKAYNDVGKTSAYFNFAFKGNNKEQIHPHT

For the first test, the target named is T1, murine PDGFRa on NIH3T3 cells (murine, UniProt P26618 25-1089).
T1 construct: whole, on cells; also called mouse PDGFR-alpha
T1 sequence (P26618 25-1089): as the sequence (P26618 25-1089) above
The test can be described thus: FACS on NIH3T3 cells, goat anti-human IgG Cy5.
Consider B1, for which the binding result is on record as “no binding (tested: 10 ug/ml)”.

With B2, the binding result is “no binding (tested: 10 ug/ml)”.

For the molecule B3, the binding result is given as “no binding (tested: 10 ug/ml)”.

The target in another test is T1, murine PDGFRa on NIH3T3 cells. The test can be described thus: FACS on NIH3T3 cells, 10 ug/ml antibody, goat anti-human IgG Cy5.
B4: the binding result is given as “binds”.

Take B5: the binding result is on record as “binds”.

For the next test, the target named is T2, Recombinant human sPDGFR-alpha (R&D catalog# 322-PR/CF) (human, UniProt P16234 24-528).
T2 construct: extracellular domain; Bought reagent; also called soluble PDGFRa; recombinant soluble PDGFR-alpha extracellular domain
T2 sequence (P16234 24-528): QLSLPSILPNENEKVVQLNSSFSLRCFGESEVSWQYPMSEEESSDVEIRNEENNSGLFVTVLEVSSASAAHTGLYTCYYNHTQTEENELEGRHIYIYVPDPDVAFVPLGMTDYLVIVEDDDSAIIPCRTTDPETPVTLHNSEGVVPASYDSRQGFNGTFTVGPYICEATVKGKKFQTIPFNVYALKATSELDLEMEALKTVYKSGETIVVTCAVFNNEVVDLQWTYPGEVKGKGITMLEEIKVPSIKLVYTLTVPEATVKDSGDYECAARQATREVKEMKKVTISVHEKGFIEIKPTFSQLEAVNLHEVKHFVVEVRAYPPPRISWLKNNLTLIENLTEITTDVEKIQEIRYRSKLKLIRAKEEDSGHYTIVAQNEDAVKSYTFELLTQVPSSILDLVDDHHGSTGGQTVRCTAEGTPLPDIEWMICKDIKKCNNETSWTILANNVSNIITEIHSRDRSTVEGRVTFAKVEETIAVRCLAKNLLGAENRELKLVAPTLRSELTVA
The test can be described thus: soluble PDGFRa binding ELISA, plate coated with recombinant human PDGFR-alpha. For orientation: ELISA stands for enzyme-linked immunosorbent assay.
As for B6, the IC50 stood at 0.046 µg/mL.

Consider B7, for which the IC50 came out at 0.045 µg/mL.

Turning to B3, the 50% inhibitory concentration (IC50) worked out at 0.044 µg/mL.

A further test concerns the target T3, Mouse PDGFRa on NIH3T3 cells (mouse, UniProt P26618 25-1089).
T3 construct: whole, on cells; also called endogenous PDGFRa of NIH3T3 murine fibroblasts
The test can be described thus: FACS on NIH3T3 cells, 10 ug/ml antibody.
Regarding B8, the binding result is given as “binds”.

Consider B9, for which the binding result is “binds”.

In the case of B10, the binding result is “binds”.

The target in another test is T4, PDGFR-alpha on MG-63 cells (human, UniProt P16234 24-1089).
T4 construct: whole, on cells; receptor as expressed by MG-63 cells; also called platelet derived growth factor receptor-alpha; CD140a
T4 sequence (P16234 24-1089): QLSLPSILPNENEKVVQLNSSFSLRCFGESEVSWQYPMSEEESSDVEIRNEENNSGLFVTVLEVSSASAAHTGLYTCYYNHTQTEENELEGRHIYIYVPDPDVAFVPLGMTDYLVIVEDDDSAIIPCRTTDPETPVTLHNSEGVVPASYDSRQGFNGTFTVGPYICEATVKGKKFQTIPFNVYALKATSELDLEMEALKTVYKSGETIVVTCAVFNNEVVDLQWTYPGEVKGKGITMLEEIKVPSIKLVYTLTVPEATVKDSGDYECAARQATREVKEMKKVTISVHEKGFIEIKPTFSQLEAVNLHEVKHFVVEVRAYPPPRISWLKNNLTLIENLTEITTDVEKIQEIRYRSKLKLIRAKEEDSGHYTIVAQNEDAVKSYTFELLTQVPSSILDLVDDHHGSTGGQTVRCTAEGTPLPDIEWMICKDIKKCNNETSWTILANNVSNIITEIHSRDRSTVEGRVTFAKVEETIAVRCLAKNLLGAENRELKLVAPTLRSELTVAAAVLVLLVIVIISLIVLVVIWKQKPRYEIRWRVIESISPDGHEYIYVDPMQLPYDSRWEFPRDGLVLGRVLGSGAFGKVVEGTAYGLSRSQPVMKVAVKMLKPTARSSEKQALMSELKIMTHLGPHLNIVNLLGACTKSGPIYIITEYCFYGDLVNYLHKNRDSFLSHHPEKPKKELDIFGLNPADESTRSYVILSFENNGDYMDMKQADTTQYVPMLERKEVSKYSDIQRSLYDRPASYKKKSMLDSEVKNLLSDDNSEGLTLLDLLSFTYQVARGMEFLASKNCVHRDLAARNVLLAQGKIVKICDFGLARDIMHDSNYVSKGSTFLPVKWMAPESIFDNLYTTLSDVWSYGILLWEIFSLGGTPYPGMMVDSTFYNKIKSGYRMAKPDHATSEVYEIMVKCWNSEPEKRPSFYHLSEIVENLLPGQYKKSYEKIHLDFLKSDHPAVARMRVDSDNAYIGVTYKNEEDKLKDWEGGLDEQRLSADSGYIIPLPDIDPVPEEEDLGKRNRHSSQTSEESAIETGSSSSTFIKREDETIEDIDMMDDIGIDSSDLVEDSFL
The test can be described thus: FACS titration on MG-63 cells expressing PDGFR-alpha, 4 °C, Cy5 secondary antibody, nonlinear fit of geometric mean fluorescence.
Turning to B11, the affinity, expressed as Kd, was 0.057 nM.

Consider B12, for which the affinity, expressed as Kd, was 0.227 nM.

For B13, the Kd is 0.328 nM.

As to B14, the Kd is 0.052 nM and 0.053 nM.

The target of a further test is CSF-1R (UniProt P07333 20-512, limits assumed). Description: method not described.
Chain of CSF-1R (P07333 20-512 limits assumed): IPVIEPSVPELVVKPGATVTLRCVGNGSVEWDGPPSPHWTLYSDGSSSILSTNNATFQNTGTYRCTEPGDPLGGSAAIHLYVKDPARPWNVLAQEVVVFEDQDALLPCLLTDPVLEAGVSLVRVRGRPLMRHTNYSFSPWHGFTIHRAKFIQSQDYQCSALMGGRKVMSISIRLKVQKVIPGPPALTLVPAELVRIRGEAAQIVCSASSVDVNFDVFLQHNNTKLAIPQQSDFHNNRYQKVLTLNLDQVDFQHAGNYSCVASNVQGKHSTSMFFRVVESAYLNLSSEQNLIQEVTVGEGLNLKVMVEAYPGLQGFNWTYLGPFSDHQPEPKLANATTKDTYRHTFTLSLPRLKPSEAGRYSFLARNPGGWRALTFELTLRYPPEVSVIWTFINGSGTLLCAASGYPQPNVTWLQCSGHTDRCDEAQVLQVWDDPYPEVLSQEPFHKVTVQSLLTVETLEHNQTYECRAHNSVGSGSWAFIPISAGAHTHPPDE
For the molecule B8, the binding result is on record as “no binding”.

With B9, the binding result is recorded as “no binding”.

Regarding B10, the binding result is reported as “no binding”.

The target of the next test is PDGFR-beta (UniProt P09619 33-530, limits assumed). Description: method not described.
Chain of PDGFR-beta (P09619 33-530 limits assumed): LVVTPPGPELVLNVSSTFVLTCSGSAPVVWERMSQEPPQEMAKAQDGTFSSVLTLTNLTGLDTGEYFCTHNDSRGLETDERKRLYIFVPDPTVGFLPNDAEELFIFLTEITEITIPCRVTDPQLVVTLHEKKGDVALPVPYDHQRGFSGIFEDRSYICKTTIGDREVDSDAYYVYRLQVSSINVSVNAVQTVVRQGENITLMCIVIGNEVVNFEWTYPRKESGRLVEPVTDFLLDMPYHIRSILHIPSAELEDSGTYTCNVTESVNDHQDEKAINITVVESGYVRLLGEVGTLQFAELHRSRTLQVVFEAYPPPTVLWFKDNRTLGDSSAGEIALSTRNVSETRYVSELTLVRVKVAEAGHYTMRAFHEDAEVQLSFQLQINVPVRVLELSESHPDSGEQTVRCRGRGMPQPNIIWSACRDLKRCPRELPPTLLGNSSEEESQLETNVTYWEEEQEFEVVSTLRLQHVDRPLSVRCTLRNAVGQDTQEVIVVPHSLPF
As for B8, the binding result is “no binding”.

Take B9: the binding result was “no binding”.

B10: the binding result is on record as “no binding”.

A further test addresses c-kit (UniProt P10721 26-520, limits assumed). Description: method not described.
Consider B8, for which the binding result is on record as “no binding”.

In the case of B9, the binding result is reported as “no binding”.

Consider B10, for which the binding result is “no binding”.

For another test, the target named is FLT3 (UniProt P36888 27-541, limits assumed). The test can be described thus: method not described.
With B8, the binding result is “no binding”.

On to B9, for which the binding result is on record as “no binding”.

Take B10: the binding result is “no binding”.

The target of the next test is T5, PDGFR-alpha on human osteosarcoma MG-63 cells (human, UniProt P16234 24-1089). The test can be described thus: cell-based or functional assay.
T5 sequence (P16234 24-1089): as the sequence (P16234 24-1089) above
In the case of B6, the “PTYR Assay IC50” value was 0.029 µg/mL.

As for B7, the “PTYR Assay IC50” value was 0.031 µg/mL.

B3: the “PTYR Assay IC50” value is 0.021 µg/mL.

The target in another test is T2, Recombinant human sPDGFR-alpha (R&D …). The test can be described thus: Biacore T100 SPR, 22 C, mAb immobilised on CM5, sPDGFR-alpha injected, 1:1 fit.
Regarding B1, the Kd was determined as 0.164 nM, the off-rate (koff) is 4.89e-05 s⁻¹ and the kon was found to be 298000 M⁻¹ s⁻¹.

With B6, the Kd amounted to 0.0071 nM, the koff was determined as 2.53e-06 s⁻¹ and the kon was determined as 355000 M⁻¹ s⁻¹.

In the case of B7, the Kd came to 0.0086 nM, the koff was 3.8e-06 s⁻¹ and the kon was found to be 440000 M⁻¹ s⁻¹.

For the molecule B3, the Kd amounted to 0.14 nM, the koff was 6.16e-05 s⁻¹ and the kon came out at 440000 M⁻¹ s⁻¹.

In another test the target is T5, PDGFR-alpha on human osteosarcoma MG-63 …. Description: FACS titration on MG-63 cells, 4 C, Cy5 goat anti-human detection.
Molecule B1 came in with a Kd of 0.057 nM.

Regarding B2, binding was characterised by a dissociation constant (Kd) of 0.227 nM.

Take B3: binding was characterised by a dissociation constant (Kd) of 0.052 nM.

A further test addresses T4, PDGFR-alpha on MG-63 cells. The test can be described thus: cell-based or functional assay.
B11: the “Average pTyr Inhibition” value amounted to 99%.

With B12, the “Average pTyr Inhibition” value amounted to 98%.

For B13, the “Average pTyr Inhibition” value turned out to be 99%.

In the case of B14, the “Average pTyr Inhibition” value was found to be 99%.

The target of a further test is T4, PDGFR-alpha on MG-63 cells. Description: cell-based or functional assay. The source holds these as a separate data set.
Consider B11, for which the “PROLIFERATION ASSAY: MG-63 CELLS, IC50” value is 2.1 nM.

With B12, the “PROLIFERATION ASSAY: MG-63 CELLS, IC50” value was 481 ng/ml and 3.2 nM.

For B13, the “PROLIFERATION ASSAY: MG-63 CELLS, IC50” value stood at 0.37 nM.

As for B14, the “PROLIFERATION ASSAY: MG-63 CELLS, IC50” value came to 1.57 nM.

Another test deals with T5, PDGFR-alpha on human osteosarcoma MG-63 …. The test can be described thus: cell-based or functional assay. This is another data set of the same source.
For B1, the “Proliferation Assay: IC50 ng/ml (1-6-06)” value is 308 ng/mL, the “Proliferation Assay: IC50 ng/ml (1-23-06)” value is 316 ng/mL, the “Proliferation Assay: IC50 (1-6-06)” value was found to be 2.05 nM and the “Proliferation Assay: IC50 (1-23-06)” value was 2.1 nM. Further, the “pTyr Assay: % Inhibition @ 2 µg/ml” value is 99%.

Turning to B2, the “Proliferation Assay: IC50 ng/ml (1-6-06)” value is 192 ng/mL, the “Proliferation Assay: IC50 ng/ml (1-23-06)” value worked out at 481 ng/mL, the “Proliferation Assay: IC50 (1-6-06)” value was determined as 1.3 nM and the “Proliferation Assay: IC50 (1-23-06)” value is 3.2 nM. The “pTyr Assay: % Inhibition @ 2 µg/ml” value was found to be 98%.

With B4, the “Proliferation Assay: IC50 ng/ml (1-6-06)” value was found to be 755 ng/mL, the “Proliferation Assay: IC50 ng/ml (1-23-06)” value worked out at 982 ng/mL and the “pTyr Assay: % Inhibition @ 2 µg/ml” value worked out at 97%.

As for B5, the “Proliferation Assay: IC50 ng/ml (1-6-06)” value turned out to be 1120 ng/mL, the “Proliferation Assay: IC50 ng/ml (1-23-06)” value is 2680 ng/mL and the “pTyr Assay: % Inhibition @ 2 µg/ml” value came to 98%.

As to B3, the “Proliferation Assay: IC50 ng/ml (1-6-06)” value turned out to be 179 ng/mL, the “Proliferation Assay: IC50 ng/ml (1-23-06)” value came out at 237 ng/mL, the “Proliferation Assay: IC50 (1-6-06)” value was 1.2 nM and the “Proliferation Assay: IC50 (1-23-06)” value stood at 1.57 nM. For the same molecule, the “pTyr Assay: % Inhibition @ 2 µg/ml” value was found to be 99%.
